Assay results as given in patent publication US20240100174A1, “PROTEIN-PEG INTERACTIONS THAT REDIRECT THE THERMAL UNFOLDING PATHWAY OF PEGYLATED HUMAN GALECTIN-3C” (UNIVERSITY OF FLORIDA RESEARCH FOUNDATION, INCORPORATED, priority 2022, published 2024).
Changes are numbered by the printed parent chain. Numbers in names are those of the source. One block for each molecule: values may come before it.

Key:
[1] = Variable temperature circular dichroism (CD) thermal unfolding; type: physicochemical; conditions: for Tm1 ± StDev: normalized CD at 220 nm vs. temperature, 3 replicates averaged, ramp 30-90° C. at 1° C. per minute; for thermal unfolding behaviour / formation of unfolding intermediate: result in words, for polymer conjugates the selected SEC fractions; for Tm2 ± StDev: second unfolding transition, cells printed as ND with footnote b
Protocol: CD spectroscopic data were recorded with an Applied Photophysics™ Chirascan spectrophotometer equipped with a Quantum Northwestern Peltier temperature control device and operating with Chirascan v4.7.0 and Pro-Data™ Viewer software. Samples were prepared in PBS at final concentrations of 10 μM. All samples were contained in 2 mm tapered quartz cuvettes, and a temperature probe was inserted through the cuvette cap to monitor the sample temperature in real time. The following parameters were used for constant temperature experiments: CD signal measured in millidegrees, bandwidth of 1.0 nm, wavelength scan from 200-280 nm, step size of 2.0 nm. Spectra were background subtracted against the sample buffer. For thermal unfolding experiments, a linear thermal ramp was applied from 30° C. to 90° C. at 1° C. per minute. All spectra were measured in triplicate, and data were normalized to account for slight differences in protein concentration.
To calculate melting temperatures of unconjugated Gal3C, Gal3C[T243C], and Gal3C[T243C] variants containing lysine replacements, the normalized data were fit to a Boltzmann sigmoidal function in Origin v8.5. For the data fitting, no parameters were fixed, and the ‘x’ parameter defined as the center of the data was interpreted as the melting temperature (Tm). Variable temperature CD data of PEGylated Gal3C[T243C] and Gal3C[T243C] variants were fit with a sum of two Boltzmann sigmoidal functions, as shown below:
where ‘A1’, ‘A2’, and ‘A3’ represent three plateaus of the CD signal, ‘dx1’ and ‘dx2’ are the change in x between the plateaus for each melting transition, and ‘x1’ and ‘x2’ are the two Tm values extracted by the fit for the first and second unfolding transitions, respectively. Because the third plateau, A3, occurred at temperatures higher than the experimentally accessible range, this value was estimated. A single wavelength for plotting on the y-axis was selected by calculating the wavelength of greatest CD signal change for each PEGylated construct.
To record a CD spectrum of Gal3C[T243C] with free PEG, a stock solution of methoxy-PEG (mPEG) in 1×PBS was added immediately before the experiment to a solution containing protein (20 μM, 1 ×PBS) to a final concentration of 22 μM mPEG. All thermal melt parameters were the same as listed in the above described experiments.
CD spectroscopic data were recorded with an Applied Photophysics Chirascan spectrophotometer equipped with a Quantum Northwestern Peltier temperature control device and operating with Chirascan v4.7.0 and Pro-Data Viewer software, following procedures used in our previous study.^4 Spectra were background subtracted against the sample buffer. For thermal unfolding experiments, a linear thermal ramp was applied from 30° C. to 90° C. at 1° C. per minute with samples concentrated to 10 μM in PBS. All spectra were measured in triplicate, and data were normalized to account for slight differences in protein concentration.
Full wavelength (200-280 nm) CD spectra for each construct (FIG. 43) were used to calculate a wavelength of greatest change (222 or 224 nm) to create single wavelength CD vs. temperature plots (FIG. 30H-J and FIG. 31F-G). The single wavelength CD signal vs. temperature plot of Gal3C[T243C] used data acquired at 220 nm, which was the wavelength of greatest change for the unmodified protein. To calculate melting temperatures, the normalized data were fit to a Boltzmann sigmoidal function in Origin v8.5. For the data fitting, no parameters were fixed, and the ‘x’ parameter defined as the center of the data was interpreted as the melting temperature (Tm).

[2] = Equilibrium binding of LacNac, intrinsic tryptophan fluorescence; conditions: ligand LacNac; average ± standard deviation of 3 replicated experiments; PBS; read-out: Kd (equilibrium binding constant)
Protocol: (§1) Equilibrium binding data were recorded using a protocol adapted from a previous procedure from Restuccia, et al (38). Intrinsic tryptophan fluorescence was monitored using a Cary Eclipse™ Fluorescence Spectrophotometer (Agilent) operating with Cary Eclipse™ WinFLR software version 1.2 in ‘Scan Mode’. The instrument method parameters were as follows: excitation wavelength was 280 nm, the acquisition range was from 290 nm to 440 nm and the photomultiplier tube sensitivity was set to ‘medium’. Samples were prepared at final concentrations of 1 μM for Gal3C[T243C] or 5 μM Gal3C[T243C]-PEG in 800 ∥L, in PBS for each titration. Samples were pipetted into 0.7×0.7 cm quartz cuvettes with a micro stir bar. Each new experiment was first zeroed against PBS to remove the small background signal from the buffer. […]
The binding affinity and specificity of Gal3C[T243C]-PEG was compared with Gal3C[T243C] and Gal3C (see FIG. 1C, FIG. 9 and FIG. 10) via an inherent tryptophan fluorescence assay optimized to ensure equilibrium binding conditions. Binding of lactose or LacNac quenches the fluorescence of W181, located adjacent to the bound sugar in the crystal structure of Gal3C, thus permitting direct measurement of ligand Kd values. […]

[3] = Equilibrium binding of lactose, intrinsic tryptophan fluorescence; conditions: ligand lactose; average ± standard deviation of 3 replicated experiments; PBS; read-out: Kd (equilibrium binding constant)
Protocol: as §1
The binding affinity and specificity of Gal3C[T243C]-PEG was compared with Gal3C[T243C] and Gal3C (see FIG. 1C, FIG. 9 and FIG. 10) via an inherent tryptophan fluorescence assay optimized to ensure equilibrium binding conditions. Binding of lactose or LacNac quenches the fluorescence of W181, located adjacent to the bound sugar in the crystal structure of Gal3C, thus permitting direct measurement of ligand Kd values.

[4] = system: breast cancer; conditions: breast cancer animal models; cited from earlier work

Molecule: Gal3C[T243C, K139I]: Gal3C[T243C] variant with lysine K139 replaced by isoleucine
Tm1 ± StDev [1]: 52.5 ± 0.4 °C
Tm1 ± StDev ([1]; listed as Gal3C[T243C,K139I]): 52.5 °C
thermal unfolding behaviour / formation of unfolding intermediate [1]: cooperative one step unfolding
Tm2 ± StDev [1]: ND^b (Higher than detectable by instrument (>90° C.))
Tm / Tm1 ([1]; values of Summary of Results, Tm for unconjugated protein, Tm1 for PEG conjugate): 52.7 °C

Kd [2]: 231 ± 32.3 µM
Kd [3]: 529 ± 125 µM
B1: Gal3C: carbohydrate recognition domain of human galectin-3, residues A111 to E252; SEQ ID NO: 13 (protein)
chain: MAGPLIVPYNLPLPGGVVPRMLITILGTVKPNANRIALDFQRGNDVAFHFNPRFNENNRRVIVCNTKLDNNWGREERQSVFPFESGKPFKIQVLVEPDHFKVAVNDAHLLQYNHRVKKLNEISKLGISGDIDLTSASYTMILEHHHHHH
fitted melting temperature (Tm) ([1]; FIG. 13, normalized CD intensity at 220 nm, Boltzmann sigmoidal fit): 58.4 °C
Tm1 ± StDev [1]: 58.8 ± 0.6 °C
tumor growth [4]: inhibiting tumor growth

B2: Gal3C[T243C, K139I, K196I]: Gal3C[T243C] variant with lysines K139 and K196 replaced by isoleucines (protein)
chain: MADNFSLHDALSGSGNPNPQGWPGAWGNQPAGAGGYPGASYPGAYPGQAPPGAYPGQAPPGAYPGAPGAYPGAPAPGVYPGPPSGPGAYPSSGQPSATGAYPATGPYGAPAGPLIVPYNLPLPGGVVPRMLITILGTVIPNANRIALDFQRGNDVAFHFNPRFNENNRRVIVCNTKLDNNWGREERQSVFPFESGIPFKIQVLVEPDHFKVAVNDAHLLQYNHRVKKLNEISKLGISGDIDLCSASYTMI
Tm1 ± StDev [1]: 60.5 ± 0.6 °C
Tm1 ± StDev ([1]; listed as Gal3C[T243C,K139I,K196I]): 60.5 °C
thermal unfolding behaviour / formation of unfolding intermediate [1]: cooperative one step unfolding
Tm2 ± StDev [1]: ND^b (Higher than detectable by instrument (>90° C.))

B3: Gal3C[T243C,K139I,K196I,K199I]: Gal3C[T243C] variant with lysines K139, K196 and K199 replaced by isoleucines (protein)
chain: B2 chain with K199I
thermal unfolding behaviour / formation of unfolding intermediate [1]: significantly altered unfolding profile
